{
  "source": "patent US20220143204A1",
  "about": "(LINXIS B V, published 2022)",
  "binders": {"B1": {"name": "SP02P (VHH)", "VHH": "EVQLVESGGGLVQAGGSLRLSCAASESISSIEQMGWFRQAPGKQRALVAINTYGGRTVYTNSVEGRFTMSRDSAKNMVYLQMTSLEPEDTAVYYCYAQTTAWRGGVWGQGTQVTVSS", "notes": "Llama VHH; on phage in the phage ELISA"}, "B2": {"name": "SP28P (VHH)", "VHH": "EVQLVESGGGLVQAGGSLRLSCAASGSIVSFNGINWYRQAPGKQREWVGGITQGGNTMYADSVRGRFTISRDNTKNTMYLQMNSLKPEDTAVYYCRRPPVASWGQGTQVTVSS", "notes": "as for B1"}, "B3": {"name": "SP28P-SP26P-IRDye800CW (VHH, not shown: small tags and cut ends)", "chain": "EVQLVESGGGLVQAGGSLRLSCAASGSIVSFNGINWYRQAPGKQREWVGGITQGGNTMYADSVRGRFTISRDNTKNTMYLQMNSLKPEDTAVYYCRRPPVASWGQGTQVTVSSGGGGSGGGGSGGGGSEVQLVESGGGLVQAGGSLRLSCAASGRSFSSSVMGWFRQTPGKEREFVAATRWTAASTHYADSVKGRFTISRDHAENAVFLQMNSLKPEDTAVYYCAAGNYLDTAQYRYNYWGQGTQVTVSS", "modifications": "IRDye800CW by maleimide chemistry on the C-terminal free cysteine", "notes": "Biparatopic tandem VHH; also called SP28-SP26P; SP28-26P"}, "B4": {"name": "SP02P-SP26P-IRDye800CW (VHH, not shown: small tags and cut ends)", "chain": "EVQLVESGGGLVQAGGSLRLSCAASESISSIEQMGWFRQAPGKQRALVAINTYGGRTVYTNSVEGRFTMSRDSAKNMVYLQMTSLEPEDTAVYYCYAQTTAWRGGVWGQGTQVTVSSGGGGSGGGGSGGGGSEVQLVESGGGLVQAGGSLRLSCAASGRSFSSSVMGWFRQTPGKEREFVAATRWTAASTHYADSVKGRFTISRDHAENAVFLQMNSLKPEDTAVYYCAAGNYLDTAQYRYNYWGQGTQVTVSS", "modifications": "IRDye800CW by maleimide chemistry on the C-terminal free cysteine", "notes": "Biparatopic tandem VHH"}, "B5": {"name": "13F11-13E8-IRDye800CW (VHH, not shown: small tags and cut ends)", "chain": "EVQLVESGGRLVQPGDSLRLSCAASGRTFSDNAMGWFRQAPGKERRFVAGISWAGGSTYYSDSVKGRFTISRDNAKNTVYLQMNSLKPEDTAVYYCAAGLRAWVQRMPKDYNYWGQGTQVTVSSGGGGSGGGGSGGGGSEVQLVESGGGLVQAGGSLRLSCAASRSISPMGWYRQAPGKQRELVAIMPSSGPPIYADSVQGRFTISRDNAKNTVYLQMNSLKPEDTAVYYCNVGGGYWGQGTQVTVSS", "modifications": "IRDye800CW by maleimide chemistry on the C-terminal free cysteine", "notes": "Biparatopic tandem VHH; also called IRD800CW conjugated 13F11-13E8; F11E8"}, "B6": {"name": "SP26P (VHH)", "VHH": "EVQLVESGGGLVQAGGSLRLSCAASGRSFSSSVMGWFRQTPGKEREFVAATRWTAASTHYADSVKGRFTISRDHAENAVFLQMNSLKPEDTAVYYCAAGNYLDTAQYRYNYWGQGTQVTVSS", "notes": "Llama VHH; on phage in the phage ELISA; also called SP026P"}},
  "key": {"[1]": {"biological_target": "T1, human PDGFRB on LX-2 cells (human, UniProt P09619)", "T1 construct": "full-length receptor on the cell surface; The list has human PDGFRB only on SCC VII cells", "T1 sequence (P09619 33-1106 limits assumed)": "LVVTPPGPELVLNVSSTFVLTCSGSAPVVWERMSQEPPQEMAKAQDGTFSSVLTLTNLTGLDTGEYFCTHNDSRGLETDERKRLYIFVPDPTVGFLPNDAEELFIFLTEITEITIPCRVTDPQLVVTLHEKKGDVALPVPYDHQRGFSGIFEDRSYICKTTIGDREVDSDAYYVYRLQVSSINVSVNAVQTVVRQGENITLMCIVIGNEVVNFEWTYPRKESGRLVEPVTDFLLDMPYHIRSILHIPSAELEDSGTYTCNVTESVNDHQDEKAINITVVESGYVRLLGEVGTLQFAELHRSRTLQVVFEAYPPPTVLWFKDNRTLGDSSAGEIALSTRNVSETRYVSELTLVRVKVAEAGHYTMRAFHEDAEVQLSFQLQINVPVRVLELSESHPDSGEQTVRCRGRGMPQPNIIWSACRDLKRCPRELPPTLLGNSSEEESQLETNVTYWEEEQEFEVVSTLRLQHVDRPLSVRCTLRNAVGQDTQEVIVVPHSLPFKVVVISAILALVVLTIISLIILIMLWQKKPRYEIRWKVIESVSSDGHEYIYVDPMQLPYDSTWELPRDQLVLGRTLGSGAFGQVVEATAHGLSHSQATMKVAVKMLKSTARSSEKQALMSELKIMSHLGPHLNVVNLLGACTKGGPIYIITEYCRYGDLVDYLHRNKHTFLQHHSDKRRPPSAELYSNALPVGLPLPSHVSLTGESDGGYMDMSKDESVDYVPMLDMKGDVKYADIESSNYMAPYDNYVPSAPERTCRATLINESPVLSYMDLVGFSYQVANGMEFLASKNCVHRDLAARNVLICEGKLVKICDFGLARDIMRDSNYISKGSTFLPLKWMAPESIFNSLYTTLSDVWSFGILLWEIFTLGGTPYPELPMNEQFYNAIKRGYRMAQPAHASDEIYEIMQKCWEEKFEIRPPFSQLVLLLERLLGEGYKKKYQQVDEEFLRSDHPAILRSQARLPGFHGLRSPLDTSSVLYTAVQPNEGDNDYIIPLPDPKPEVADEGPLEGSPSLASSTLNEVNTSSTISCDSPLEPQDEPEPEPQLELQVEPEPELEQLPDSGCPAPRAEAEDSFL", "assay": "binding assay on the human hepatic stellate cell line LX-2 (Example 4)"}, "[2]": {"biological_target": "T2, human PDGFRB on SCC VII cells (human, UniProt P09619 33-1106)", "T2 construct": "whole, on cells; also called hPDGFRB; SCC-hPDGFRB", "T2 sequence (P09619 33-1106)": "as the sequence (P09619 33-1106 limits assumed) above", "assay": "binding assay on SCC VII cells transfected with human PDGFRB (Example 4)"}, "[3]": {"biological_target": "T3, human PDGFRB extracellular domain (human, UniProt P09619 33-532)", "T3 construct": "extracellular domain; also called hPDGFRB-ECD; human PDGFRB ectodomain", "T3 sequence (P09619 33-532)": "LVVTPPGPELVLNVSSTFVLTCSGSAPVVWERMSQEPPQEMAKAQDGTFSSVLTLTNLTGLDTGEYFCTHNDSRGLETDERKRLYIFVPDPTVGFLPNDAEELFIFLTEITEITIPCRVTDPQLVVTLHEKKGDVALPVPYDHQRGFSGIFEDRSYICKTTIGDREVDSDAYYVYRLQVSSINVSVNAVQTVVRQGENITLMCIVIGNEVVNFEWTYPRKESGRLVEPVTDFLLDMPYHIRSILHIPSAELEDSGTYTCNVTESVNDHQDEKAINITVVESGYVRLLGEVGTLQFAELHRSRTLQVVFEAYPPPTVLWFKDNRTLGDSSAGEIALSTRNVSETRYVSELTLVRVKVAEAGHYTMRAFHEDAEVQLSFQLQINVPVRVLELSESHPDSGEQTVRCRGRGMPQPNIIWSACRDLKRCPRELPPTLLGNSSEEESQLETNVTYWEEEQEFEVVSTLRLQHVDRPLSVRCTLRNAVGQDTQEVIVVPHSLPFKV", "assay": "binding assay on immobilised human PDGFRB ectodomain, apparent affinity (Example 4)"}, "[4]": {"biological_target": "T2, human PDGFRB on SCC VII cells", "assay": "binding assay on SCC VII cells transfected with human PDGFRB-GFP, VHH detected with anti-VHH rabbit serum and IRDye800CW secondary antibody; binding in % (n=6) [left panel]", "procedure": "(§1) FIG. 9. Binding of selected VHHs on SCC VII cells transfected with either the human or rat PDGFRB receptor (SCC-hP or SCC-rP) fused to GFP. The VHH is detected using anti-VHH rabbit serum and donkey-anti-rabbit secondary antibody labelled with IRDye800CW.\n(§2) The results are summarized in FIGS. 5 and 6 for the hPDGFRB and rPDGFRB VHHs, respectively. […] Moreover, the binding affinities of the hPDGFRB VHHs human were also determined on the human hepatic stellate cell (HSC) line LX-2 (FIG. 5)."}, "[5]": {"biological_target": "T4, rat PDGFRB on SCC VII cells (rat, UniProt Q05030 32-1097)", "T4 construct": "whole, on cells; also called rPDGFRB; SCC-rPDGFRB", "assay": "binding assay on SCC VII cells transfected with rat PDGFRB (Example 4)"}, "[6]": {"biological_target": "T5, rat PDGFRB extracellular domain (rat, UniProt Q05030 32-531)", "T5 construct": "extracellular domain; also called rPDGFRB-ECD; rat PDGFRB ectodomain", "T5 sequence (looked up)": "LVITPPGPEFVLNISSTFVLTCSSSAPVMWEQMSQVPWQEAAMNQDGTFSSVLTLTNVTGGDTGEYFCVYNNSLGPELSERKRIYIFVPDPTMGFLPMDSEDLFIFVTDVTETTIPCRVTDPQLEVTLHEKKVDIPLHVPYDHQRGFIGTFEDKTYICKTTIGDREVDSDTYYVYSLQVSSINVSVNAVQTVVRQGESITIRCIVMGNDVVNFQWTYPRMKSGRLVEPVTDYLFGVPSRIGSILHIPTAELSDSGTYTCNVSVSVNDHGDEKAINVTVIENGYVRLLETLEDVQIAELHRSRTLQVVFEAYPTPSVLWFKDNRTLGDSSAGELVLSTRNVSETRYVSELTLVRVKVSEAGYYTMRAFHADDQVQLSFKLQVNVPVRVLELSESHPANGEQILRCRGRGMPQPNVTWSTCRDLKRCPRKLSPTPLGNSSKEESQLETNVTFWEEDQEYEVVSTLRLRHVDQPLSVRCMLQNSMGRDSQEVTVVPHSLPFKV", "assay": "binding assay on immobilised rat PDGFRB ectodomain, apparent affinity (Example 4)"}, "[7]": {"biological_target": "T4, rat PDGFRB on SCC VII cells", "assay": "binding assay on SCC VII cells transfected with rat PDGFRB-GFP, VHH detected with anti-VHH rabbit serum and IRDye800CW secondary antibody; binding in % (n=2) [right panel]", "procedure": "as §1, §2"}, "[8]": {"biological_target": "T2, human PDGFRB on SCC VII cells", "assay": "binding assay of the IRDye800CW conjugate on SCC VII cells transfected with human PDGFRB, fluorescence at 800 nm", "procedure": "(§3) Based on their high affinity and binding to non-overlapping hPDGRB epitopes, VHHs SP02P, SP12P SP14P and […] were selected for the design of biparatopic VHH constructs and produced in a similar way as described in example 6.1. (FIG. 15A). The binding affinities of the biparatopic constructs were determined with an ELISA assay with the periplasm (FIG. 15A). Moreover, based on their high affinity and binding to non-overlapping rPDGRB epitopes, VHHs SP26P and SP28P were selected for the design of a biparatopic VHH construct and produced in a similar way as described in example 6.1. The formed biparatopic SP28P-SP26P was conjugated to IRDye800CW (SP28P-SP26P-IRDye800CW conjugation method as described in example 9.2) and subjected to a binding assay SCC VII cells transfected with hPDGFRB, rPDGFRB or hIGF2R were performed (FIG. 15B). […] In order to create a biparatopic VHH construct which is cross-reactive for hPDGFRB and rPDGFRB, VHH SP02P binding to hPDGFRB and VHH SP026P binding to rPDGFRB were selected and the biparatopic construct SP02P-SP26P was produced in a similar way as described in example 6.1. (FIG. 15C). Construct SP02P-SP26P was conjugated to IRDye800CW (SP02P-SP26P-IRDye800CW, conjugation method as described in example 9.2) and subjected to bindings assays on SCC VII cells transfected with hPDGFRB, rPDGFRB or hIGF2R were performed (FIG. 15C)."}, "[9]": {"biological_target": "T2, human PDGFRB on SCC VII cells", "assay": "binding assay on SCC VII cells transfected with hPDGFRB", "procedure": "as §3"}, "rat IGF2R on cells": {"biological_target": "T6, rat IGF2R on cells (rat, UniProt A0A8I6GLL6 43-2479)", "T6 construct": "whole, on cells; also called rIGF2R", "assay": "binding assay on SCC VII cells over-expressing rat IGF2R", "procedure": "(§4) To determine whether 13F11-13E8 is cross-reactive against rIGF2R, the construct was conjugated to IRDye800CW (13F11-13E8-IRDye800CW, conjugation method as described in example 9.2) and the binding affinity was determined using a binding assay on SCC VII cells over-expressing either human, or rat IGF2R (FIG. 12)."}, "human IGF2R on cells": {"biological_target": "T7, human IGF2R on cells (human, UniProt P11717 41-2491)", "T7 construct": "whole, on cells; On SCC VII cells over-expressing human IGF2R, NIH 3T3 2.2 cells transiently transfected with hIGF2R, or A549 cells, as told under assay or readout; also called hIGF2R", "T7 sequence (P11717 41-2491)": "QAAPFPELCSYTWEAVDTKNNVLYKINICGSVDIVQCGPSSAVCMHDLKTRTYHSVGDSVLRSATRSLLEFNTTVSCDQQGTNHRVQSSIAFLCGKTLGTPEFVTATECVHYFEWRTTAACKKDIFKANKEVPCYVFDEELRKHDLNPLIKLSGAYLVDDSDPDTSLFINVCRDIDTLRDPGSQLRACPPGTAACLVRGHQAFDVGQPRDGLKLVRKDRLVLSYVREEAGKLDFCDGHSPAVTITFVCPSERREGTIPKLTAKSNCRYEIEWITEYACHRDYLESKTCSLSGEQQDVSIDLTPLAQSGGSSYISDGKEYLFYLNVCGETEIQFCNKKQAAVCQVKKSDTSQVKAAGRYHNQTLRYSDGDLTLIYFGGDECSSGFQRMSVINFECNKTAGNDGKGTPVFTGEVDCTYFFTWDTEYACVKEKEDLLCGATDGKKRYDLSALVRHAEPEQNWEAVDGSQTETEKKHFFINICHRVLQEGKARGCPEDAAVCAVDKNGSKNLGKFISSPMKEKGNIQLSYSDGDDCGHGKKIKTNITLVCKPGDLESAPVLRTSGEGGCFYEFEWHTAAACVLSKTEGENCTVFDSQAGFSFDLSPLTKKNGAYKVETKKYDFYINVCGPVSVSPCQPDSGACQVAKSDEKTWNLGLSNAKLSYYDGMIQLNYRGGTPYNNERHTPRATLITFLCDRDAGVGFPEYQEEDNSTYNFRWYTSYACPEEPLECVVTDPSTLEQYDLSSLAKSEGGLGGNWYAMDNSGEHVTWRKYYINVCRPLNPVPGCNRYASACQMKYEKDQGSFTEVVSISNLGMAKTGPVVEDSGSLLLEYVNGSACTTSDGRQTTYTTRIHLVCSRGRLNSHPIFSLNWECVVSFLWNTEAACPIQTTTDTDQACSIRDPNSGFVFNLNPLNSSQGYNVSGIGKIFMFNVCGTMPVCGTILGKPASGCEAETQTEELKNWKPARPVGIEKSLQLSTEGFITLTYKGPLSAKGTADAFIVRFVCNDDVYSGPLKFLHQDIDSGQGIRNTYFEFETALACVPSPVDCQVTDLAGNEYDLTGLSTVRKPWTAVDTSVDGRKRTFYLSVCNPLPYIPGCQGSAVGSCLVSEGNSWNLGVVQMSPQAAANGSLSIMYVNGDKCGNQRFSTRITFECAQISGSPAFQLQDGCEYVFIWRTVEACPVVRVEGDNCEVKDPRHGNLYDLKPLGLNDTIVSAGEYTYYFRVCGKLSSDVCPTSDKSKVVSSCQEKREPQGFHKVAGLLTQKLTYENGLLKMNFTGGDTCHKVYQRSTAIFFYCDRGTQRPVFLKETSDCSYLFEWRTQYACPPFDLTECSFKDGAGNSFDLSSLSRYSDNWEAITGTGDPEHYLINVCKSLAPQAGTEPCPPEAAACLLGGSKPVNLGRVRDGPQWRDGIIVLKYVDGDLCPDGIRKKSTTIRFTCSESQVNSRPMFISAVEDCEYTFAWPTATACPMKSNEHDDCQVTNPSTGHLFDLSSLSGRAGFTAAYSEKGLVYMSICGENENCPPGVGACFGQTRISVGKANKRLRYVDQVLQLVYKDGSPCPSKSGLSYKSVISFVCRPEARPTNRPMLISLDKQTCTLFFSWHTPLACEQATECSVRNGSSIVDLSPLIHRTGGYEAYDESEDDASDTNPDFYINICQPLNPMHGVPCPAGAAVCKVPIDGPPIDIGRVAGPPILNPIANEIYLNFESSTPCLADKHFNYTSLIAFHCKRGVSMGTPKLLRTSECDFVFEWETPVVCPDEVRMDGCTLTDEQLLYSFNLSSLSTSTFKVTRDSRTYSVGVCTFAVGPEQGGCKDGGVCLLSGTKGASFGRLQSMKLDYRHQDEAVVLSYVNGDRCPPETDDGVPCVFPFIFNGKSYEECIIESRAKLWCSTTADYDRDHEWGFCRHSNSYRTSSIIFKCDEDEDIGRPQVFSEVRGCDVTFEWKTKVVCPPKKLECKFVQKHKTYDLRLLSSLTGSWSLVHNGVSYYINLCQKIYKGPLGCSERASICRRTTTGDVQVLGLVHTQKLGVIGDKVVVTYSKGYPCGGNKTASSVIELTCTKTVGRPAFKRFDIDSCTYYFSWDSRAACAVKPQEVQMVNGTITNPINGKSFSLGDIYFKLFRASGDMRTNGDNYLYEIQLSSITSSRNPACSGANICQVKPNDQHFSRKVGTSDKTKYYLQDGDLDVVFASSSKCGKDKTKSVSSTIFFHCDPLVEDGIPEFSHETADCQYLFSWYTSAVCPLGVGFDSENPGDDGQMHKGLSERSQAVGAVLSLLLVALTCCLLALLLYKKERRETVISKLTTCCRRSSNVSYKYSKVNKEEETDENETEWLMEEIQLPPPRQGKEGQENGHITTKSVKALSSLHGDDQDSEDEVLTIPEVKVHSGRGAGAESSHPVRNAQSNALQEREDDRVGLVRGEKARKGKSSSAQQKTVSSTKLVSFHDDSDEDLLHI", "assay": "binding assay on SCC VII cells over-expressing human IGF2R", "procedure": "as §4"}, "[10]": {"biological_target": "T3, human PDGFRB extracellular domain", "assay": "binding and competition assays of Examples 4 and 5"}, "PDGFRB ECD": {"biological_target": "PDGFRB ECD", "sequence (P09619 33-532)": "as the sequence (P09619 33-532) above", "assay": "competition ELISA on PDGFRB ECD: unconjugated competitor titrated against SP26P-IRDye800, fluorescence at 800 nm", "procedure": "Competition ELISAs were carried out to determine whether the hPDGFRB specific binders (FIG. 5) and rPDGFRB specific binders (FIG. 6) recognize distinct epitopes on hPDGFRB or rPDGFRB, respectively. The hPDGFRB binding VHHs SP02P, SP05P, SP12P and SP14P and the rPDGFRB binder SP26P were conjugated to IRDye800CW (VHH-IRDye800CW, conjugation method as described in example 9.2) and each conjugated VHH was mixed with unconjugated competitor in trifold serial dilutions and incubated on immobilized […]. Two VHHs share (part of) the same epitope when the fluorescence signal of the VHH-IRDye800CW decreases upon increasing concentration of unconjugated VHH. Furthermore, using a similar method as described in section 5.1, binding epitope competition between the hPDGFRB binding VHH SP02P and rPDGFRB binding VHH SP26P was performed. No competition was observed between the two VHHs qualifying them as building blocks for biparatopic binding molecules (FIG. 11)."}},
  "data": [
    {"binder": "B1", "values": [
      {"measurement": "Kd", "setting": "[1]", "value": 6.7, "unit": "nM"},
      {"measurement": "Kd", "setting": "[2]", "value": 4.1, "unit": "nM"},
      {"measurement": "Kd", "setting": "[3]", "value": 6.2, "unit": "nM"},
      {"measurement": "EC50 (read off the curve)", "setting": "[4]", "value": "~4", "unit": "nM"}
    ]},
    {"binder": "B2", "values": [
      {"measurement": "Kd", "setting": "[5]", "value": 0.5, "unit": "nM"},
      {"measurement": "Kd", "setting": "[6]", "value": 6, "unit": "nM"},
      {"measurement": "EC50 (read off the curve)", "setting": "[7]", "value": "~0.6", "unit": "nM"}
    ]},
    {"binder": "B3", "values": [
      {"measurement": "Kd", "setting": "[8]", "value": 32.4, "unit": "nM"}
    ]},
    {"binder": "B4", "values": [
      {"measurement": "Kd", "setting": "[9]", "value": "< 5", "unit": "nM"},
      {"measurement": "Kd", "setting": "[8]", "value": 2.2, "unit": "nM"}
    ]},
    {"binder": "B5", "values": [
      {"measurement": "Kd", "setting": "rat IGF2R on cells", "value": "< 10", "unit": "nM"},
      {"measurement": "Kd", "setting": "human IGF2R on cells", "value": "< 10", "unit": "nM"}
    ]},
    {"binder": "B6", "values": [
      {"measurement": "binding result", "setting": "[10]", "value": "binds"},
      {"measurement": "IC50 (read off the curve)", "setting": "PDGFRB ECD", "value": "~40", "unit": "nM"}
    ]}
  ]
}
